Assay results: the Human Domainome abundance scans (Beltran et al. 2025)

B1: Metastasis-associated protein MTA3, residues 265 to 317; numbered along this chain, Q9BTC8 (parent)
chain: RDEMEEWSASEASLFEEALEKYGKDFNDIRQDFLPWKSLTSIIEYYYMWKTTD

Variants of: B1
Experiment: abundance fitness (aPCA) (normalised: wild type 0, dead -1); higher = more abundant; growth selection in yeast, the domain comes from the species named
Conditions: Homo sapiens

Abundance fitness, by site and new letter:
F26: S -0.959
K24: G -0.208; C 0.163; R -0.151; S -0.108; D -0.165; W -0.935; E -0.133; V -0.217; F -0.992; L -0.006; A 0.104; Q -0.062; Y -0.331; H -0.362; N 0.333; I -0.536; P 0.307
N27: I 0.743; L -0.602; A -0.015; T -0.148; V -0.246; S 0.037; M -0.464; D 0.074; E 0.431; Q -0.075; Y -0.305; W -0.635
Y22: M -0.792; H -0.079; W -0.84; G -0.625; L -0.536; D -1.07; E -0.856; I 0.078; N -0.712; K -0.72; Q -0.921; P -0.707; C 0.26; T -0.599; V 0.068; A -0.687; S -0.53; R -0.2
K21: P -0.804; S -0.745; L -0.483; G -0.842; V -0.444; Q -0.685; T -0.443; W -0.801; F -0.504; N -0.984; D -0.579; Y -0.571; C -0.683; I -0.418; H -0.674; R -0.381; M -0.763; E -0.867
I43: E 0.392; K 0.268; Q 0.136; C -0.517; P -0.875; R 0.162; L -0.689; G -0.491; D -1.11; V -0.381; S -0.297; T -0.193; F -0.474; A -0.148; H -0.075; Y -0.304; N -0.7; W -0.559; M -0.01
D32: S 1.09
A18: W -0.817; D -1.2; N -0.863; E -0.439; Y -0.703; L -0.627; P -0.912; V -0.443; H -0.873; S -0.988; T -1; Q -0.542; M -0.643; C -0.32; F -0.902; G 0.438; R -0.913; K -0.554
D25: I -0.162; L -0.741; F -0.594; V -0.818; T -0.838; Q 0.088; H -0.125; G -0.47; S 0.366; N 0.356; C -0.026; A 0.556; E -0.087; W -0.776; K 0.375; M -0.25; Y -0.392
S41: H -0.717; C -0.681; R -0.868; N -0.561; Y -0.488; G -0.954; V -0.837; E 0.161; A -0.139; K -0.781; P 0.242; Q -0.226; W -0.901; I -1.09; M -0.794; D 0.05; F -0.54; T -0.804; L -0.577
W36: E -0.884; S -0.645; G -0.484; V -0.657; L -0.749; C -0.733; T -0.696; K -0.217; M -0.677; R -0.58; H -0.239; A -0.788; Q -0.422; Y -0.615; N -0.177; I -0.874
I42: W -0.204; Q -0.875; L -0.658; Y -0.572; D -0.828; A -0.98; T -0.605; E -0.888; S -0.713; C -0.711; M -0.833; R -0.69; H -0.744; V -0.475; F -0.634; P -0.798
L39: C -0.733; R -0.348; T -0.389; E -0.865; G -0.896; V -0.327; M -0.541; D -0.483; S -0.581; A -0.6
S38: E 0.047; Q -0.393; L -0.69; V -0.821; K -0.852; C -0.995; M -0.159; Y -0.711; H -0.425; W -0.992; D -0.71; I -0.629; G 0.47; F -0.844; R -0.749; P -0.563
E16: Q 0.023; L -0.557; W -0.504; R -0.427; Y -0.185; M -0.608; P -0.621; S -0.324; N -0.632; V -0.589; T -0.686
E20: H -0.499; C -0.682; P -0.864; W -0.613; M -0.561; F -0.54; A 0.007; N -0.303; I -0.267; L -0.126; T -0.262; D -0.283; S -0.366; V -0.213; G -0.321; Y -0.506
T40: H -0.138; P -0.332; V -0.714; A -0.322; W -0.898; I -0.771; Y -0.571; Q 0.195; D 0.195; R -0.029; S -0.336; L -0.827; G -0.188; C -0.328; M -0.435; N 0.129; F -0.875
D28: S 0.644; L 0.978; N -0.112; E 0.305; P -0.522; K 0.9; T 0.59; Q 1.19; R 0.549; W 0.035; C 0.882; F -0.015; A 0.861; I 0.324; Y 0.322; M 0.331; G 0.079
E44: A -0.477; G -0.691; C -0.808; D -0.145
F33: L -0.169
G23: P -0.81; K -1.05; R -0.844; Q -0.759; I -1.01; C -0.368; W -0.868; S -0.792; H -0.784; E -0.815; V -0.888; Y -0.353; N -0.638; A -0.536; D -0.558; M -0.735; T -0.92; L -0.745
E17: H -0.737; C -0.589; S -0.428; V -0.584; I -0.591; D -0.477; K -0.197; F -0.515; Q -0.557; G -0.772; N -0.668; R -0.304; L -0.175; P -0.756; M -0.333; A -0.598; Y -0.39
L19: W 0.043; H -0.525; Q -0.34; S -0.722; I 0.027; F 0.459; Y 0.49; D -0.92; V 0.113; T -0.581; K -0.838; G 0.002; R -0.607; M -0.255; C -1.03; A -0.67; N -0.785; E -0.809
K37: E -0.806; R -0.398; C -0.763; W -0.84; N -0.803; G -0.812; T -0.88; V -0.842; P -0.877; F -0.785; Y -0.806; D -0.707; S -0.65; M -0.719; H -0.941; L -0.802; I -0.586
